Experiment in all cases: cell-based or functional assay
The target of one assay is CytERM-mTagBFP.
In assay [1] the target is CytERM-moxBFP (Aequorea victoria (Water jellyfish) (Mesonema victoria)) [GFP: P42212].
In assay [2] the target is CytERM-EBFP2 (Aequorea victoria (Water jellyfish) (Mesonema victoria)) [GFP: P42212].

CytERM-mTagBFP: in the assay with CytERM-mTagBFP, the % Cells with OSER Structures (n = cells) amounted to 43.5%.
For “CytERM-moxBFP (from UniProt P42212 2-238)”, the % Cells with OSER Structures (n = cells) in assay [1] worked out at 0.9%.
“CytERM-EBFP2 (from UniProt P42212 2-238)” yielded a % Cells with OSER Structures (n = cells) in assay [2] of 63.7%.

The values are drawn from patent US20160333061A1.
